This is an account of results in patent publication US5853984, “Use of nucleic acid ligands in flow cytometry” (NeXstar Pharmaceuticals, Inc.).

Data set [1] addresses T1, Human neutrophil elastase (HNE) (Homo sapiens) (UniProt P08246).
T1 sequence: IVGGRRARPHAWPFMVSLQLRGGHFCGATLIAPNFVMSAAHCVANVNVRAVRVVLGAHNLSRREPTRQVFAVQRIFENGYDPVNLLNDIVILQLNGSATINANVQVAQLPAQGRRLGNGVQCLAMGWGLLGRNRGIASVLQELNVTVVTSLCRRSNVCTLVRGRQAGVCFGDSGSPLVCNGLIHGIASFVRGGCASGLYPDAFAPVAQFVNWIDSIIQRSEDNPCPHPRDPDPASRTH
Briefly: filter. The settings on record: 150 mM NaCl, 100 mM Tris-HCl pH 7.0, 2 mM MgCl2, 6 mM KCl, 0.02% HSA, 37 C.

Data set [2] deals with T1, Human neutrophil elastase (HNE) (Homo sapiens). As to the kind of experiment: flow. The settings on record: HNE on polystyrene beads, 2 mM MgCl2, 1% BSA, room temperature.
Data set [3] has as its target T2, Human neutrophil elastase (HNE) (Homo sapiens, UniProt P08246 P08246:30-267). As to the kind of experiment: flow; second-step staining with streptavidin-phycoerythrin; affinity lower than direct fluorescence measurement. The settings on record: tags: Athens Research and Technology, salt-free lyophilized solid; label: biotin (streptavidin-phycoerythrin); G-quartet with duplex ends.

The target of data set [4] is T2, Human neutrophil elastase (HNE). As to the kind of experiment: flow; HNE on polystyrene beads, 2 mM MgCl2, 1% BSA, room temperature. The settings on record: tags: Athens Research and Technology, salt-free lyophilized solid; label: fluorescein; G-quartet with duplex ends.
Experimental: Beads (0.5% solids) in acetate buffer were coated with HNE (0.5 μg/cm² of bead surface area) for 30 min and then washed and suspended (approx. 5×10⁵ beads/μL) in acetate buffer containing 2% BSA. HNE coated beads were stored at 4° C. until use.
Staining of HNE coated beads was achieved by incubating beads (approx. 3×10⁵) with varying concentrations of fluoresceinated oligonucleotides in 50 μL of binding buffer consisting of 100 mM Tris-HCl (pH 7.0), 0.15M NaCl, 6 mM KCl, 2 mM MgCl₂ and 1% BSA for 30 min at room temperature. The beads were then washed with 2 mL of the same buffer and suspended in 0.5 mL for analysis. Staining with mouse anti-HNE was accomplished in the same method except that bound antibody was detected by a second step fluorescein isothiocyanate (FITC) labeled antibody (X56-FITC). […] Analysis was performed on a FACScan™ flowcytometer (Becton Dickinson). The sensitivity of the flowcytometer was adjusted so that the autofluorescence of the unstained beads was located in the middle of the first decade.
Data set [5] shares this target. Briefly: filter; 150 mM NaCl, 100 mM Tris-HCl pH 7.0, 2 mM MgCl2, 6 mM KCl, 0.02% HSA, 37 C. The settings on record: tags: Athens Research and Technology, salt-free lyophilized solid; label: fluorescein; G-quartet with duplex ends.
Where [6] appears, read: tail-to-tail dimer via symmetric 3'-3' linker (X) with ethylene glycol linkers and two fluoresceins (LFLXLFL).
[7] abbreviates: two internal fluoresceins in extension.

In the case of “TAGCGATACTGCGTGGGTTGGGGCGGGTAGGGCCAGCAGTCTCGTNNNNNNNTGCTCTGACGACCGGGATGGGCGGGGTTGGGTGCGTCATAGCGAT [DNA-DIMER-TT]”, the Kd in data set [1] (setting [6]) came out at 3 nM; in data set [2] (setting [6]), 20 nM.

As for “GNCACAGTCGACGATACTGCGTGGGTTGGGGCGGGTAGGGCCAGCAGTCTCGTNGACTGRGTC [DNA-EXT]”, the Kd in data set [1] (setting [7]) was found to be 12 nM; in data set [2] (setting [7]), 48 nM.

With TAGCGATACTGCGTGGGTTGGGGCGGGTAGGGCCAGCAGTCTCGTT (ssDNA, biotin attached to 3' end through a linker) [biotinylated DNA ligand], the binding result in data set [3] is on record as “binds”.

B1: DNA-LNK-5F (ssDNA)
DNA: TAGCGATACTGCGTGGGTTGGGGCGGGTAGGGCCAGCAGTCTCGT
modifications: 5' fluorescein followed by two hexaethylene glycol spacers [5' fluorescein + two hexaethylene glycol spacers (n1-n3, left out) before T1]
As for B1, the Kd in data set [4] is 110 nM; in data set [5], 12 nM.

As usually defined, the Kd is a measure of binding affinity in units of concentration.
